According to US20190071490A1, “Preventing Post-Ictal Headaches” (Beth Israel Deaconess Medical Center, Inc., priority 2017, published 2019):

Experiments:
human α-CGRP = molecular target: T1, human α-CGRP (Homo sapiens, UniProt P06881); experiment: Biacore SPR affinity of Fab fragments to N-biotinylated human α-CGRP on SA chip; type: binding; conditions: 37° C., screening mode except underlined values
T1 construct: 1-37 (WT); purchased GenScript Corporation or Global Peptide Services
T1 sequence (P06881 83-119 limits assumed): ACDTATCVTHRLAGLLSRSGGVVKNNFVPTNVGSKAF
Procedure: (§1) Affinity determination of the Fabs. Affinities of the anti-CGRP monoclonal antibodies were determined at either 25° C. or 37° C. using the BIACORE3000™ surface plasmon resonance (SPR) system (Biacore, INC, Piscataway N.J.) with the manufacture's own running buffer, HBS-EP (10 mM HEPES pH 7.4, 150 mM NaCl, 3 mM EDTA, 0.005% v/v polysorbate P20). Affinity was determined by capturing N-terminally biotinylated CGRP peptides (custom ordered from GenScript Corporation, New Jersey or Global Peptide Services, Colorado) via pre-immobilized streptavidin on SA chip and measuring binding kinetics of antibody Fab titrated across the CGRP surface. Biotinylated CGRP was diluted into HBS-EP and injected over the chip at a concentration of less than 0.001 mg/ml. Using variable flow time across the individual chip channels, two ranges of antigen density were achieved: <50 response units (RU) for detailed kinetic studies and about 800 RU for concentration studies and screening. […] After each binding cycle, surfaces were regenerated with 25 mM NaOH in 25% v/v ethanol, which was tolerated over hundreds of cycles. Kinetic association rate (kon) and dissociation rate (koff) were obtained simultaneously by fitting the data to a 1:1 Langmuir binding model (Karlsson et al. (1994). Methods Enzymology 6. 99-110) using the BIAevaluation program. Global equilibrium dissociation constants (KD) or “affinities” were calculated from the ratio KD=koff/kon.
(§2) Biacore assay for affinity determination. […] All Biacore assays were conducted in HBS-EP running buffer (10 mM HEPES pH 7.4, 150 mM NaCl, 3 mM EDTA, 0.005% v/v polysorbate P20). CGRP surfaces were prepared by diluting the N-biotinylated CGRP to a concentration of less than 0.001 mg/mL into HBS-EP buffer and injecting it across the SA sensor chip using variable contact times. Low capacity surfaces, corresponding to capture levels <50 response units (RU) were used for high-resolution kinetic studies, whereas high capacity surfaces (about 800 RU of captured CGRP) were used for concentration studies, screening, and solution affinity determinations. […] Samples were typically injected for 1 minute at 100 μL/min and dissociation times of at least 10 minutes were allowed. After each binding cycle, surfaces were regenerated with 25 mM NaOH in 25% v/v ethanol, which was tolerated over hundreds of cycles. An entire titration series (typically generated in duplicate) was fit globally to a 1:1 Langmuir binding model using the BIAevaluation program. This returned a unique pair of association and dissociation kinetic rate constants (respectively, kon and koff) for each binding interaction, whose ratio gave the equilibrium dissociation constant (KD=koff/kon).
(§3) High-resolution analysis of binding interactions with extremely slow off rates. […] The protocol described above was used with the following modifications. The association rate constant (kon) was determined by injecting a 2-fold titration series (in duplicate) spanning 550 nM-1 nM for 30 seconds at 100 μL/min and allowing only a 30 second dissociation phase. The dissociation rate constant (koff) was determined by injecting three concentrations (high, medium, and low) of the same titration series in duplicate for 30 seconds and allowing a 2-hour dissociation phase. The affinity (KD) of each interaction was obtained by combining the kon and koff values obtained in both types of experiments, as shown in Table 4.

rat α-CGRP = molecular target: T2, rat α-CGRP (Rattus norvegicus, UniProt P01256); experiment: Biacore SPR affinity of Fab fragments to N-biotinylated rat α-CGRP on SA chip; type: binding; conditions: 37° C., screening mode except underlined values
T2 construct: rat α (1-37); purchased GenScript Corporation or Global Peptide Services
T2 sequence (P01256 83-119 limits assumed): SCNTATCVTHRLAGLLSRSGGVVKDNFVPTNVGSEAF
Procedure: as §1, §2, §3

B1: M75: G1 variant; L1 R28N T30G; L2 L56S; H2 E54K A57V; HC-FW3 L99T A100V (antibody, V domains shown)
VH: EVQLVESGGGLVQPGGSLRLSCAASGFTFSNYWISWVRQAPGKGLEWVAEIRSKSDVSATHYAEAVKGRFTISRDNAKNSLYLQMNSLRAEDTAVYYCTVYFDYGLAIQNYWGQGTLVTVSS
VL: EIVLTQSPATLSLSPGERATLSCKASKNVGTYVSWYQQKPGQAPRLLIYGASNRYSGIPARFSGSGSGTDFTLTISSLEPEDFAVYYCSQSYNYPYTFGQGTKLEIK
Human α-CGRP
  α-human koff: 0.00116 s⁻¹
Rat α-CGRP
  α-rat koff: 0.0187 s⁻¹

B2: M76: G1 variant; L1 R28N T30S; L2 G50A L56T; H2 A57G; HC-FW3 L99T A100V (antibody, V domains shown)
VH: EVQLVESGGGLVQPGGSLRLSCAASGFTFSNYWISWVRQAPGKGLEWVAEIRSESDGSATHYAEAVKGRFTISRDNAKNSLYLQMNSLRAEDTAVYYCTVYFDYGLAIQNYWGQGTLVTVSS
VL: EIVLTQSPATLSLSPGERATLSCKASKNVSTYVSWYQQKPGQAPRLLIYAASNRYTGIPARFSGSGSGTDFTLTISSLEPEDFAVYYCSQSYNYPYTFGQGTKLEIK
Human α-CGRP
  α-human koff: 0.000364 s⁻¹
Rat α-CGRP
  α-rat koff: 0.00116 s⁻¹

B3: M82: G1 variant; L1 R28N T30V; L2 A51H L56T; H2 A57N; HC-FW3 L99T A100V (antibody, V domains shown)
VH: EVQLVESGGGLVQPGGSLRLSCAASGFTFSNYWISWVRQAPGKGLEWVAEIRSESDNSATHYAEAVKGRFTISRDNAKNSLYLQMNSLRAEDTAVYYCTVYFDYGLAIQNYWGQGTLVTVSS
VL: EIVLTQSPATLSLSPGERATLSCKASKNVVTYVSWYQQKPGQAPRLLIYGHSNRYTGIPARFSGSGSGTDFTLTISSLEPEDFAVYYCSQSYNYPYTFGQGTKLEIK
Human α-CGRP
  α-human koff: 0.000877 s⁻¹
Rat α-CGRP
  α-rat koff: 0.00699 s⁻¹

B4: M77: G1 variant; L1 R28N T30S; L2 G50A L56T; H2 E54K A57D; HC-FW3 L99T A100V (antibody, V domains shown)
VH: EVQLVESGGGLVQPGGSLRLSCAASGFTFSNYWISWVRQAPGKGLEWVAEIRSKSDDSATHYAEAVKGRFTISRDNAKNSLYLQMNSLRAEDTAVYYCTVYFDYGLAIQNYWGQGTLVTVSS
VL: EIVLTQSPATLSLSPGERATLSCKASKNVSTYVSWYQQKPGQAPRLLIYAASNRYTGIPARFSGSGSGTDFTLTISSLEPEDFAVYYCSQSYNYPYTFGQGTKLEIK
Human α-CGRP
  α-human koff: 0.000477 s⁻¹
Rat α-CGRP
  α-rat koff: 0.0143 s⁻¹

B5: M80: G1 variant; L1 R28N T30S; L2 L561; H2 E54K A57N; S58V (printed in L1 column); HC-FW3 L99T A100V (antibody, V domains shown)
VH: EVQLVESGGGLVQPGGSLRLSCAASGFTFSNYWISWVRQAPGKGLEWVAEIRSKSDNVATHYAEAVKGRFTISRDNAKNSLYLQMNSLRAEDTAVYYCTVYFDYGLAIQNYWGQGTLVTVSS
VL: EIVLTQSPATLSLSPGERATLSCKASKNVSTYVSWYQQKPGQAPRLLIYGASNRYIGIPARFSGSGSGTDFTLTISSLEPEDFAVYYCSQSYNYPYTFGQGTKLEIK
Human α-CGRP
  α-human koff: 0.00209 s⁻¹
Rat α-CGRP
  α-rat koff: 0.0993 s⁻¹

B6: M83: G1 variant; L1 R28N T30V; L2 A51H L56T; H2 E54K A57N S58M; H61F (printed in L1 column); HC-FW3 L99T A100V (antibody, V domains shown)
VH: EVQLVESGGGLVQPGGSLRLSCAASGFTFSNYWISWVRQAPGKGLEWVAEIRSKSDNMATFYAEAVKGRFTISRDNAKNSLYLQMNSLRAEDTAVYYCTVYFDYGLAIQNYWGQGTLVTVSS
VL: EIVLTQSPATLSLSPGERATLSCKASKNVVTYVSWYQQKPGQAPRLLIYGHSNRYTGIPARFSGSGSGTDFTLTISSLEPEDFAVYYCSQSYNYPYTFGQGTKLEIK
Human α-CGRP
  α-human koff: 0.000933 s⁻¹
Rat α-CGRP
  α-rat koff (1/s): No binding

B7: M81: G1 variant; L1 R28N T30S; L2 L56S; H2 E54K A57N S58E; HC-FW3 L99T A100V (antibody, V domains shown)
VH: EVQLVESGGGLVQPGGSLRLSCAASGFTFSNYWISWVRQAPGKGLEWVAEIRSKSDNEATHYAEAVKGRFTISRDNAKNSLYLQMNSLRAEDTAVYYCTVYFDYGLAIQNYWGQGTLVTVSS
VL: EIVLTQSPATLSLSPGERATLSCKASKNVSTYVSWYQQKPGQAPRLLIYGASNRYSGIPARFSGSGSGTDFTLTISSLEPEDFAVYYCSQSYNYPYTFGQGTKLEIK
Human α-CGRP
  α-human koff: 0.00049 s⁻¹
Rat α-CGRP
  α-rat koff: 0.00429 s⁻¹

B8: M78: G1 variant; L1 R28N T30S; L2 G50A L56T; H2 E54K A57N S58T; HC-FW3 L99T A100V (antibody, V domains shown)
VH: EVQLVESGGGLVQPGGSLRLSCAASGFTFSNYWISWVRQAPGKGLEWVAEIRSKSDNTATHYAEAVKGRFTISRDNAKNSLYLQMNSLRAEDTAVYYCTVYFDYGLAIQNYWGQGTLVTVSS
VL: EIVLTQSPATLSLSPGERATLSCKASKNVSTYVSWYQQKPGQAPRLLIYAASNRYTGIPARFSGSGSGTDFTLTISSLEPEDFAVYYCSQSYNYPYTFGQGTKLEIK
Human α-CGRP
  α-human koff: 0.00131 s⁻¹
Rat α-CGRP
  α-rat koff: 0.167 s⁻¹

B9: M84: G1 variant; L1 R28N T30V; L2 A51H L56T; H2 E54N A57N; HC-FW3 L99T A100V (antibody, V domains shown)
VH: EVQLVESGGGLVQPGGSLRLSCAASGFTFSNYWISWVRQAPGKGLEWVAEIRSNSDNSATHYAEAVKGRFTISRDNAKNSLYLQMNSLRAEDTAVYYCTVYFDYGLAIQNYWGQGTLVTVSS
VL: EIVLTQSPATLSLSPGERATLSCKASKNVVTYVSWYQQKPGQAPRLLIYGHSNRYTGIPARFSGSGSGTDFTLTISSLEPEDFAVYYCSQSYNYPYTFGQGTKLEIK
Human α-CGRP
  α-human koff: 0.00108 s⁻¹
Rat α-CGRP
  α-rat koff: 0.0176 s⁻¹

B10: M79: G1 variant; L1 R28N T30S; L2 G50A L56T; H2 E54K A57P; HC-FW3 L99T A100V (antibody, V domains shown)
VH: EVQLVESGGGLVQPGGSLRLSCAASGFTFSNYWISWVRQAPGKGLEWVAEIRSKSDPSATHYAEAVKGRFTISRDNAKNSLYLQMNSLRAEDTAVYYCTVYFDYGLAIQNYWGQGTLVTVSS
VL: EIVLTQSPATLSLSPGERATLSCKASKNVSTYVSWYQQKPGQAPRLLIYAASNRYTGIPARFSGSGSGTDFTLTISSLEPEDFAVYYCSQSYNYPYTFGQGTKLEIK
Human α-CGRP
  α-human koff: 0.00129 s⁻¹
Rat α-CGRP
  α-rat koff: 0.19 s⁻¹

B11: M20: G1 variant; L1 R28W; HC-FW3 L99R A100L (antibody, V domains shown)
VH: EVQLVESGGGLVQPGGSLRLSCAASGFTFSNYWISWVRQAPGKGLEWVAEIRSESDASATHYAEAVKGRFTISRDNAKNSLYLQMNSLRAEDTAVYYCRLYFDYGLAIQNYWGQGTLVTVSS
VL: EIVLTQSPATLSLSPGERATLSCKASKWVTTYVSWYQQKPGQAPRLLIYGASNRYLGIPARFSGSGSGTDFTLTISSLEPEDFAVYYCSQSYNYPYTFGQGTKLEIK
Human α-CGRP
  α-human koff: 0.000136 s⁻¹
Rat α-CGRP
  α-rat koff: 0.00144 s⁻¹
